Results: publication PMC10786891, “Massively parallel profiling of RNA-targeting CRISPR-Cas13d”

T1: EsCas13d, nuclease-dead (Eubacterium siraeum, UniProt B0MS50, R295A;H300A;R849A;H854A)
T1 sequence: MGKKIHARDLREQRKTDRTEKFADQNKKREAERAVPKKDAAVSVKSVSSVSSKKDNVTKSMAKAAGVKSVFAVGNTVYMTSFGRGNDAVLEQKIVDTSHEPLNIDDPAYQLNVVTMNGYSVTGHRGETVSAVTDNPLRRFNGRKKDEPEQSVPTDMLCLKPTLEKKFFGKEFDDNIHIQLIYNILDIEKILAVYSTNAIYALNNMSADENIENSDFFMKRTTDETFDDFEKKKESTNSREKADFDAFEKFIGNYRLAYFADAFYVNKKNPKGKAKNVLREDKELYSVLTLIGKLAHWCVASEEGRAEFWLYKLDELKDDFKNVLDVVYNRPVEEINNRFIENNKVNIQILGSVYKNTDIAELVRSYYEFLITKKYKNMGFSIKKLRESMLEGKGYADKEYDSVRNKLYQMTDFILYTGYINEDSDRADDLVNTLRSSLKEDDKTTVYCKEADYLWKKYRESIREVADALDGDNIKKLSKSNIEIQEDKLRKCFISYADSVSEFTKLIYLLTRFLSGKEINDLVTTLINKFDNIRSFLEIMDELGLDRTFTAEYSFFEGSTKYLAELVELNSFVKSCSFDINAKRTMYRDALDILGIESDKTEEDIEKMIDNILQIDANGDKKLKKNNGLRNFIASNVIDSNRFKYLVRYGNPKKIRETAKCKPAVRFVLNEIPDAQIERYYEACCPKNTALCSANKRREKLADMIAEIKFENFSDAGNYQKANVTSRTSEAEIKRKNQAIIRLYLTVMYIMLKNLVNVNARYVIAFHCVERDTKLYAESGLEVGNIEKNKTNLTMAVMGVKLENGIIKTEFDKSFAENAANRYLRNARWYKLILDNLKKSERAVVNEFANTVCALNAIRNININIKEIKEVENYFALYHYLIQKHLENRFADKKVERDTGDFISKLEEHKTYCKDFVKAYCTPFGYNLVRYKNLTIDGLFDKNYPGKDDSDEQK

B1: target 1 insU 3' of 7,insC 3' of 5 (mixed)
RNA 1: CACCCGUGCAAAAAUGCAGGGGUCUAAAACUGAGCGGAUAACCUCUCUAUGG
RNA 2: GGGAAUGGAUCCACAUCUACGAAUUCGUACCAUAGAGAGGUUAUCUCGCCUCACCGAGAUCGGAAGAGCACACGU
B2: target 1 C6U,A18G (mixed)
RNA 1: CACCCGUGCAAAAAUGCAGGGGUCUAAAACUGAGCGGAUAACCUCUCUAUGG
RNA 2: GGGAAUGGAUCCACAUCUACGAAUUCGUACCAUGGAGAGGUUAUCUGCUCACCGAGAUCGGAAGAGCACACGU
B3: target 1 A18G,U19A (mixed)
RNA 1: CACCCGUGCAAAAAUGCAGGGGUCUAAAACUGAGCGGAUAACCUCUCUAUGG
RNA 2: GGGAAUGGAUCCACAUCUACGAAUUCGUACCAAGGAGAGGUUAUCCGCUCACCGAGAUCGGAAGAGCACACGU
B4: target 1 C6A,A16U (mixed)
RNA 1: CACCCGUGCAAAAAUGCAGGGGUCUAAAACUGAGCGGAUAACCUCUCUAUGG
RNA 2: GGGAAUGGAUCCACAUCUACGAAUUCGUACCAUAGUGAGGUUAUCAGCUCACCGAGAUCGGAAGAGCACACGU
B5: target 1 insC 3' of 18,insA 3' of 11 (mixed)
RNA 1: CACCCGUGCAAAAAUGCAGGGGUCUAAAACUGAGCGGAUAACCUCUCUAUGG
RNA 2: GGGAAUGGAUCCACAUCUACGAAUUCGUACCAUACGAGAGGUAUAUCCGCUCACCGAGAUCGGAAGAGCACACGU
B6: target 1 insA 3' of 5,insA 3' of 5 (mixed)
RNA 1: CACCCGUGCAAAAAUGCAGGGGUCUAAAACUGAGCGGAUAACCUCUCUAUGG
RNA 2: GGGAAUGGAUCCACAUCUACGAAUUCGUACCAUAGAGAGGUUAUCCGAACUCACCGAGAUCGGAAGAGCACACGU
B7: target 1 insG 3' of 10,insG 3' of 4 (mixed)
RNA 1: CACCCGUGCAAAAAUGCAGGGGUCUAAAACUGAGCGGAUAACCUCUCUAUGG
RNA 2: GGGAAUGGAUCCACAUCUACGAAUUCGUACCAUAGAGAGGUUGAUCCGCGUCACCGAGAUCGGAAGAGCACACGU
B8: target 1 C4G,U8C (mixed)
RNA 1: CACCCGUGCAAAAAUGCAGGGGUCUAAAACUGAGCGGAUAACCUCUCUAUGG
RNA 2: GGGAAUGGAUCCACAUCUACGAAUUCGUACCAUAGAGAGGUUACCCGGUCACCGAGAUCGGAAGAGCACACGU
B9: target 1 insA 3' of 13,insA 3' of 8 (mixed)
RNA 1: CACCCGUGCAAAAAUGCAGGGGUCUAAAACUGAGCGGAUAACCUCUCUAUGG
RNA 2: GGGAAUGGAUCCACAUCUACGAAUUCGUACCAUAGAGAGAGUUAUACCGCUCACCGAGAUCGGAAGAGCACACGU
B10: target 1 insC 3' of 19,insC 3' of 15 (mixed)
RNA 1: CACCCGUGCAAAAAUGCAGGGGUCUAAAACUGAGCGGAUAACCUCUCUAUGG
RNA 2: GGGAAUGGAUCCACAUCUACGAAUUCGUACCAUCAGAGCAGGUUAUCCGCUCACCGAGAUCGGAAGAGCACACGU
B11: target 1 U19G (mixed)
RNA 1: CACCCGUGCAAAAAUGCAGGGGUCUAAAACUGAGCGGAUAACCUCUCUAUGG
RNA 2: GGGAAUGGAUCCACAUCUACGAAUUCGUACCAGAGAGAGGUUAUCCGCUCACCGAGAUCGGAAGAGCACACGU
B12: target 1 insU 3' of 21,insC 3' of 8 (mixed)
RNA 1: CACCCGUGCAAAAAUGCAGGGGUCUAAAACUGAGCGGAUAACCUCUCUAUGG
RNA 2: GGGAAUGGAUCCACAUCUACGAAUUCGUACCUAUAGAGAGGUUAUCCCGCUCACCGAGAUCGGAAGAGCACACGU
B13: target 1 U3C,U11G (mixed)
RNA 1: CACCCGUGCAAAAAUGCAGGGGUCUAAAACUGAGCGGAUAACCUCUCUAUGG
RNA 2: GGGAAUGGAUCCACAUCUACGAAUUCGUACCAUAGAGAGGGUAUCCGCCCACCGAGAUCGGAAGAGCACACGU
B14: target 1 insG 3' of 16,insA 3' of 7 (mixed)
RNA 1: CACCCGUGCAAAAAUGCAGGGGUCUAAAACUGAGCGGAUAACCUCUCUAUGG
RNA 2: GGGAAUGGAUCCACAUCUACGAAUUCGUACCAUAGAGGAGGUUAUCACGCUCACCGAGAUCGGAAGAGCACACGU
B15: target 1 U3A,C7U (mixed)
RNA 1: CACCCGUGCAAAAAUGCAGGGGUCUAAAACUGAGCGGAUAACCUCUCUAUGG
RNA 2: GGGAAUGGAUCCACAUCUACGAAUUCGUACCAUAGAGAGGUUAUUCGCACACCGAGAUCGGAAGAGCACACGU
B16: target 1 A1G,C2A (mixed)
RNA 1: CACCCGUGCAAAAAUGCAGGGGUCUAAAACUGAGCGGAUAACCUCUCUAUGG
RNA 2: GGGAAUGGAUCCACAUCUACGAAUUCGUACCAUAGAGAGGUUAUCCGCUAGCCGAGAUCGGAAGAGCACACGU
B17: target 1 insC 3' of 20,insG 3' of 9 (mixed)
RNA 1: CACCCGUGCAAAAAUGCAGGGGUCUAAAACUGAGCGGAUAACCUCUCUAUGG
RNA 2: GGGAAUGGAUCCACAUCUACGAAUUCGUACCACUAGAGAGGUUAGUCCGCUCACCGAGAUCGGAAGAGCACACGU
B18: target 1 insG 3' of 22,insA 3' of 15 (mixed)
RNA 1: CACCCGUGCAAAAAUGCAGGGGUCUAAAACUGAGCGGAUAACCUCUCUAUGG
RNA 2: GGGAAUGGAUCCACAUCUACGAAUUCGUACGCAUAGAGAAGGUUAUCCGCUCACCGAGAUCGGAAGAGCACACGU
B19: target 1 A9U,G17U (mixed)
RNA 1: CACCCGUGCAAAAAUGCAGGGGUCUAAAACUGAGCGGAUAACCUCUCUAUGG
RNA 2: GGGAAUGGAUCCACAUCUACGAAUUCGUACCAUAUAGAGGUUUUCCGCUCACCGAGAUCGGAAGAGCACACGU
B20: target 1 U3A,G15A (mixed)
RNA 1: CACCCGUGCAAAAAUGCAGGGGUCUAAAACUGAGCGGAUAACCUCUCUAUGG
RNA 2: GGGAAUGGAUCCACAUCUACGAAUUCGUACCAUAGAAAGGUUAUCCGCACACCGAGAUCGGAAGAGCACACGU
B21: target 1 insC 3' of 5,insC 3' of 1 (mixed)
RNA 1: CACCCGUGCAAAAAUGCAGGGGUCUAAAACUGAGCGGAUAACCUCUCUAUGG
RNA 2: GGGAAUGGAUCCACAUCUACGAAUUCGUACCAUAGAGAGGUUAUCCGCCUCACCCGAGAUCGGAAGAGCACACGU
B22: target 1 C2U,C22U (mixed)
RNA 1: CACCCGUGCAAAAAUGCAGGGGUCUAAAACUGAGCGGAUAACCUCUCUAUGG
RNA 2: GGGAAUGGAUCCACAUCUACGAAUUCGUAUCAUAGAGAGGUUAUCCGCUUACCGAGAUCGGAAGAGCACACGU
B23: target 1 C2A,G15A (mixed)
RNA 1: CACCCGUGCAAAAAUGCAGGGGUCUAAAACUGAGCGGAUAACCUCUCUAUGG
RNA 2: GGGAAUGGAUCCACAUCUACGAAUUCGUACCAUAGAAAGGUUAUCCGCUAACCGAGAUCGGAAGAGCACACGU
B24: target 1 insA 3' of 22,insG 3' of 3 (mixed)
RNA 1: CACCCGUGCAAAAAUGCAGGGGUCUAAAACUGAGCGGAUAACCUCUCUAUGG
RNA 2: GGGAAUGGAUCCACAUCUACGAAUUCGUACACAUAGAGAGGUUAUCCGCUGCACCGAGAUCGGAAGAGCACACGU

Molecular target: T1, EsCas13d, nuclease-dead
Experiment: crRNA (strand 1, pre-loaded); Mg2+; 40 mM Tris-HCl pH 7.5, 150 mM NaCl, 6 mM MgCl2, 1 mM DTT, 0.1% Tween-20, 0.2 mg/ml BSA; 25 C; 10 min per concentration, then washed
Conditions: tags: His6-TwinStrep-SUMO cleaved; N-terminal SNAP kept (SNAP-Surface 488); label: 3' end held by stalled T7 RNA polymerase

Question: For B1, which Kd is on record?
Answer: Its Kd is 12.5 ± 0.5 nM.

Question: For B2, which Kd is on record?
Answer: Its Kd is 54 ± 18 nM.

Question: With B3 as the binder, how does the Kd read?
Answer: The Kd was 98 ± 25 nM.

Question: How did the Kd turn out when B4 was run?
Answer: The Kd was 44 ± 4 nM.

Question: How did the Kd turn out when B5 was run?
Answer: The Kd was 74 ± 9 nM.

Question: Which Kd does the source give for B6 here?
Answer: The Kd was 8.5 ± 0.7 nM.

Question: For B7, which Kd is on record?
Answer: The Kd was 35 ± 7 nM.

Question: Which Kd does the source give for B8 here?
Answer: Its Kd is 4.64 ± 0.25 nM.

Question: How did the Kd turn out when B9 was run?
Answer: The Kd was 4.8 ± 0.23 nM.

Question: With B10 as the binder, how does the Kd read?
Answer: Its Kd is 45 ± 5 nM.

Question: For B11, which Kd is on record?
Answer: The Kd was 48 ± 5 nM.

Question: Which Kd does the source give for B12 here?
Answer: Its Kd is 71 ± 15 nM.

Question: Which Kd does the source give for B13 here?
Answer: Its Kd is 35 ± 4 nM.

Question: Which Kd does the source give for B14 here?
Answer: Its Kd is 14.5 ± 0.9 nM.

Question: For B15, which Kd is on record?
Answer: The Kd was 5.4 ± 0.4 nM.

Question: With B16 as the binder, how does the Kd read?
Answer: The Kd was 5.2 ± 0.32 nM.

Question: Which Kd does the source give for B17 here?
Answer: Its Kd is 10.2 ± 0.8 nM.

Question: With B18 as the binder, how does the Kd read?
Answer: Its Kd is 17.2 ± 1.6 nM.

Question: Which Kd does the source give for B19 here?
Answer: Its Kd is 30 ± 4 nM.

Question: Which Kd does the source give for B20 here?
Answer: Its Kd is 20 ± 4 nM.

Question: B21 was tested. Which Kd did it give?
Answer: Its Kd is 19.6 ± 3.4 nM.

Question: For B22, which Kd is on record?
Answer: The Kd was 26 ± 6 nM.

Question: How did the Kd turn out when B23 was run?
Answer: Its Kd is 20.2 ± 0.9 nM.

Question: With B24 as the binder, how does the Kd read?
Answer: Its Kd is 10.8 ± 0.8 nM.
